Test results: publication PMC8100176, “Cryo-EM structure of ABCG5/G8 in complex with modulating antibodies” (Communications Biology, 2021)

Tests used:
[1] = molecular target: T1, ABCG5/G8 heterodimer (ATP-binding cassette transporters ABCG5 and ABCG8), human, full length (Homo sapiens, UniProt Q9H222;Q9H221); assay: SPR; Biacore T200, CM5 chip with goat anti-mouse IgG Fc antibody capturing the mouse anti-ABCG5/G8 mAbs (~100 Ru); ABCG5/G8 in DDM micelles, multicycle kinetics, 6 pM to 100 nM, 50 µL/min, 180 s association, 1800 s dissociation (the legend of Fig. 1 says instead that mAb was injected over immobilized ABCG5/G8); conditions: both partners purified
T1 construct: ABCG5, human, full length; followed by a TEV protease cleavage site and a 12 His tag on the C-terminus; ABCG8, human, full length; In DDM micelles for SPR and the ATPase assay; in saposin A-based nanodiscs for cryo-EM; also called ABCG5/ABCG8; source: Pichia pastoris (ATUM-9016 strain), membranes extracted with DDM, purified (HisTrap, Superdex 200)
T1 sequence (Q9H222 whole entry, chain 1 of 2): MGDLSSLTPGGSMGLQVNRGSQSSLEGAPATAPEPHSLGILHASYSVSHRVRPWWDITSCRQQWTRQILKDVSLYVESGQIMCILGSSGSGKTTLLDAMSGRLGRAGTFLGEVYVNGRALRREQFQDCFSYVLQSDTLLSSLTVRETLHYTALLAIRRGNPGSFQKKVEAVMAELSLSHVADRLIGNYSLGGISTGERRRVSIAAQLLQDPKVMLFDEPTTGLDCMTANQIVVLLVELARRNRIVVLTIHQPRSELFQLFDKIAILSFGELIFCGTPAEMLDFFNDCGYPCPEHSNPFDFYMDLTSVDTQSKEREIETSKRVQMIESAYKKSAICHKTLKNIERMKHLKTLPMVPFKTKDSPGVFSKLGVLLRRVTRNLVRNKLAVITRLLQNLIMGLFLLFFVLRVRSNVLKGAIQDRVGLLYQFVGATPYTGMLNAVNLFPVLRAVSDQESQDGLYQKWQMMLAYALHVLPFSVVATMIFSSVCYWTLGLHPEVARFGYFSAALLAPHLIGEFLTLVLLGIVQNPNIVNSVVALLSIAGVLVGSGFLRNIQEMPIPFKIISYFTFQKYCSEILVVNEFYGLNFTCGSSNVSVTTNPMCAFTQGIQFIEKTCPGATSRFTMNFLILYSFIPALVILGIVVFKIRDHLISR
T1 sequence (Q9H221 whole entry, chain 2 of 2): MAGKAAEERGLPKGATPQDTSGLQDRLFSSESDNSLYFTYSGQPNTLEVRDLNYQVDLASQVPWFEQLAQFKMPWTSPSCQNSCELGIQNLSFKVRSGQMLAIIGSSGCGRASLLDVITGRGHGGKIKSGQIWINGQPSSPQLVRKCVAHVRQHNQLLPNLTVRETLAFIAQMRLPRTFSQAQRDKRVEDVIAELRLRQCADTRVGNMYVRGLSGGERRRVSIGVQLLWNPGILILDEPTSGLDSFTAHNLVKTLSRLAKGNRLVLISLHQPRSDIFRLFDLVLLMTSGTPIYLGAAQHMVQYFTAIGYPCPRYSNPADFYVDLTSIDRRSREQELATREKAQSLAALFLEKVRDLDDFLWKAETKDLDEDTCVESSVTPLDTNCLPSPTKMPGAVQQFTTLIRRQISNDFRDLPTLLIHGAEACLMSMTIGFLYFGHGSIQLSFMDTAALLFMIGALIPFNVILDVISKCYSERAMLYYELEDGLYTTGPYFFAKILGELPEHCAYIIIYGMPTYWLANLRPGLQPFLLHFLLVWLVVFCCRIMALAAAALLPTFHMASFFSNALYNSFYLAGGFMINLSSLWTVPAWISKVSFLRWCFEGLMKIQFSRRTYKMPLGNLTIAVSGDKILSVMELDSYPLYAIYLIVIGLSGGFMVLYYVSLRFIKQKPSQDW

[2] = molecular target: T2, ABCG8 (ATP-binding cassette transporter G8), human, full length, half transporter of the ABCG5/G8 heterodimer (human, UniProt Q9H221); assay: cryo-EM structure; ternary complex of ABCG5/G8 with Fab 2E10 and Fab 11F4, purified by size exclusion, in saposin A-based nanodiscs; nucleotide-free, inward-facing; 3.3 Å; conditions: both partners purified
T2 construct: ABCG8, human, full length; Same chain as the second chain of m1; written alone for the contacts seen in the structure; First residue seen in the cryo-EM structure is Phe28; source: Pichia pastoris (ATUM-9016 strain), expressed with ABCG5 and purified as the heterodimer (HisTrap, Superdex 200)
T2 sequence (Q9H221 whole entry, one chain of several): as the sequence (Q9H221 whole entry, chain 2 of 2) above

| Kd [1] | binding result [2] | Binder |
| --- | --- | --- |
| 0.11 nM |  | monoclonal antibody 2E10 against ABCG5/G8 (antibody, V domains shown, the Fab part of the heavy chain is in PDB 7JR7 (as the heavy chain of m4); as the light chain of m4, in PDB 7JR7; Mouse IgG (captured by goat anti-mouse IgG Fc); also called mAb 2E10; source: produced at the antibody core facility at Oregon Health Science University) VH: QVHLQQSGAELVRPGTSVKMSCKAAGYTFTYWWIGWLKQRPGHGLEWIGDFFPVSGHTNFNEKFRDKATLTADTSSSTAYMQLNSLTSEDSAIYYCARKQDSSGPLYAMDYWGQGTSVTVSS VL: DIQMTQSSSYLSVSLGGRVTITCKASDHINNWLAWYQQKPGNAPRLLISAATSLETGVPSRFSGSGSGKDYTLSIISLQTEDVATYYCQQYWSTPFTFGSGTKLEIK |
|  | binds | Fab fragment of monoclonal antibody 2E10 (Fab, V domains shown, also called Fab 2E10; source: papain cleavage of mAb 2E10, purified by gel filtration chromatography) VH: QVHLQQSGAELVRPGTSVKMSCKAAGYTFTYWWIGWLKQRPGHGLEWIGDFFPVSGHTNFNEKFRDKATLTADTSSSTAYMQLNSLTSEDSAIYYCARKQDSSGPLYAMDYWGQGTSVTVSS VL: DIQMTQSSSYLSVSLGGRVTITCKASDHINNWLAWYQQKPGNAPRLLISAATSLETGVPSRFSGSGSGKDYTLSIISLQTEDVATYYCQQYWSTPFTFGSGTKLEIK |
| 0.12 nM |  | monoclonal antibody 11F4 against ABCG5/G8 (antibody, V domains shown, the Fab part of the heavy chain is in PDB 7JR7 (as the heavy chain of m5); as the light chain of m5, in PDB 7JR7; Mouse IgG (captured by goat anti-mouse IgG Fc); also called mAb 11F4; source: produced at the antibody core facility at Oregon Health Science University) VH: DVQLQESGPGLVKPSQSLSLTCTITGYSITSDYAWNWIRQFPGNKLEWMGYISYSGTTYYNPSLKSRFSITRDTSRNQFFLQFNSVTTEDTGTYFCARMITTVYYFDYWGQGTTLTVSS VL: QIVLTQSPTIMSASLGERVTMTCTASSSASSSYLHWYQQKPGSSPKLWIYSTSNLASGVPARFSGSGSGTSYSLTISNMEAEDAATYYCHQHHRSPPTFGAGTKLELK |
|  | binds | Fab fragment of monoclonal antibody 11F4 (Fab, V domains shown, also called Fab 11F4; Fab11F4; source: papain cleavage of mAb 11F4, purified by gel filtration chromatography) VH: DVQLQESGPGLVKPSQSLSLTCTITGYSITSDYAWNWIRQFPGNKLEWMGYISYSGTTYYNPSLKSRFSITRDTSRNQFFLQFNSVTTEDTGTYFCARMITTVYYFDYWGQGTTLTVSS VL: QIVLTQSPTIMSASLGERVTMTCTASSSASSSYLHWYQQKPGSSPKLWIYSTSNLASGVPARFSGSGSGTSYSLTISNMEAEDAATYYCHQHHRSPPTFGAGTKLELK |
